Source: publication doi:10.1101/2025.07.28.667166

Tests used:
Experiment in all cases: NMR
[1] = molecular target: His33 (UniProt position 33, TDWCGHCQAAQ); settings: 298 K, 1 mM protein
[2] = molecular target: Cys34 (UniProt position 34, DWCGHCQAAQP); settings: 298 K; reduced (with DTT), 1 mM protein
[3] = molecular target: Cys31 (UniProt position 31, FGTDWCGHCQA); settings: 298 K; reduced (with DTT), 1 mM protein

## Patrx2 (atypical thioredoxin, PA2694) (Pseudomonas aeruginosa)
[1]; oxidised (C31-C34 disulfide, without DTT)
  pKa: less than 5
[1]; reduced (with DTT)
  pKa: 6.3
[2]
  pKa: greater than 11.0
[3]
  pKa: 5.8
